According to patent US20240158497A1 (published 2024):

B1: bsAb19147D (bispecific antibody, V domains shown)
VH 1: QVQLVESGGGVVQPGRSLRLSCTASGFTFSSYAMYWVRQAPGKGLEWVSVIYYDGSYKYYADSVKGRFTISRDNSKNTLYLQMDSLRAEDTAVYYCASYNWNYWYFDFWGRGTLVTVSS
VH 2: EVQLVESGGGLVQPGGSLRLSCTASGFTFSNYAIFWVRQAPGKGLEYVSGISNNGVTKYYADSVRDRFTISRDNSRNTVSIQMDSLRTEDMAVYYCARENWGSDDGFDIWGQGTMVTVSS
VL: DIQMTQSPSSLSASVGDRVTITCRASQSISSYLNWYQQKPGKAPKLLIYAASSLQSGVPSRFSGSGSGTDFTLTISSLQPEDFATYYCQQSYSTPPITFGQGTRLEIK
notes: common light chain
B2: bsAb19155D (bispecific antibody, V domains shown)
VH 1: B1 VH 1
VH 2: EVQLVESGGGLVQPGGSLRLSCAASGFTFSTYWMNWVRQAPGKGLEWVANIKEDGSEKYYVDSVKGRFTISRDNAKNSLYLQMNSLRAEDTAVYYCAREGFGVVTYIWGQGTMVTVSS
VL: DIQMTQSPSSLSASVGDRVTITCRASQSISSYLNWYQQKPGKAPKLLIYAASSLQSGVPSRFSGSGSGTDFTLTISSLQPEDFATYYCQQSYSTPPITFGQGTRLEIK
notes: common light chain
B3: bsAb19154D (bispecific antibody, V domains shown)
VH 1: B1 VH 1
VH 2: QVQLQQSGPGQMKSSQTLTLTCAISGDSVSSNSAIWYWIRQSPSRGLEWLGRTKFRSKWYNDFALSMKSRITINPDTSKNQFSLHLNSVTPEDTAVYYCARYKWELYFDYWGQGTLVTVSS
VL: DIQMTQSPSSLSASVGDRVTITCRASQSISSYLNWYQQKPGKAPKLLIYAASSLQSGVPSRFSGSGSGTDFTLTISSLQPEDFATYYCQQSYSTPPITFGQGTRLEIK
notes: common light chain
B4: bsAb19150D (bispecific antibody, V domains shown)
VH 1: B1 VH 1
VH 2: EVQLVESGGGLVQSGGSLRLSCAASGFTFSRYEMNWVRQAPGKGLEWVAYISNTGTTRDYSDSVKGRFTISRDNAKNSLYLQMSSLRVEDTAVYYCVREKFSGTSDWFDPWGQGTLVTVSS
VL: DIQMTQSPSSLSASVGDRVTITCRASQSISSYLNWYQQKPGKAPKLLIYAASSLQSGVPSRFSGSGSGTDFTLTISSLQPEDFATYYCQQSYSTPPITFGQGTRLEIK
notes: common light chain
B5: bsAb19148D (bispecific antibody, V domains shown)
VH 1: B1 VH 1
VH 2: QVQLVQSGTEVKKPGSSVKVSCKASGGTFSTYPINWVRQAPGQGLEWMGGIIPIFGTASYAQKFQGRVAITTDESTSTAYMELNSLRSEDTAVYYCARERPNWGSNDYWGQGTLVTVSS
VL: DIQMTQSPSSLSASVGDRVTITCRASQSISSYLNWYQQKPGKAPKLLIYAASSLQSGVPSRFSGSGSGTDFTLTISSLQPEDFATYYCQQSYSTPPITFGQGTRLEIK
notes: common light chain

Legend:
[1] = target: T1, Macaca Fascicularis LEPR extracellular domain expressed with a C-terminal myc-myc-hexahistidine tag (Macaca fascicularis, UniProt Q9MYL0 22-837 (rhesus entry)); assay: SPR Biacore 4000, bsAb captured by anti-human Fc, 37 C
T1 construct: Monomeric reagent; the whole entry is the construct with its tag; also called mfLEPR-MMH
T1 sequence (Q9MYL0 other isoform, or with tags, fused parts or gaps): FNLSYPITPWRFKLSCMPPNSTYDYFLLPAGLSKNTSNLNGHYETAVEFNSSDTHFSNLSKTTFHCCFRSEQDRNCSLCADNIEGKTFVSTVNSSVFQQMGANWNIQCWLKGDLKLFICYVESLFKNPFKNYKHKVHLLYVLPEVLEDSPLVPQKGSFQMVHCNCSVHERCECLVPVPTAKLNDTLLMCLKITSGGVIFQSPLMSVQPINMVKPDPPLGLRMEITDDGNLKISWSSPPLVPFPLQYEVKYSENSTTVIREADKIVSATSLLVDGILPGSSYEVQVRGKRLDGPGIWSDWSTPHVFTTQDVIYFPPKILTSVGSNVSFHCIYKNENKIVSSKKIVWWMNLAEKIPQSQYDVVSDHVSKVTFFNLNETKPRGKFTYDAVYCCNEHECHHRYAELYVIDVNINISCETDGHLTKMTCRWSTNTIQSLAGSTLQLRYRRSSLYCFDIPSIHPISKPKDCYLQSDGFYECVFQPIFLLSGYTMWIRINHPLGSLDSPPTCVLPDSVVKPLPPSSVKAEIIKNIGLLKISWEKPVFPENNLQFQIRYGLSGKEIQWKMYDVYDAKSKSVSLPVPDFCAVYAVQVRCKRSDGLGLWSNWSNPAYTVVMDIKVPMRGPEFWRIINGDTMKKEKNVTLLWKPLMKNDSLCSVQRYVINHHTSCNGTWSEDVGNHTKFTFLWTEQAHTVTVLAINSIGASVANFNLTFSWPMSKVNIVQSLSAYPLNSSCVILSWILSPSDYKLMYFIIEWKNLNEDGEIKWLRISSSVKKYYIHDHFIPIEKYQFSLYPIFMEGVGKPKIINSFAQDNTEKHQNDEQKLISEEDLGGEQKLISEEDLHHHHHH
Procedure: (§1) Equilibrium dissociation constants (KD values) for LEPR and GP130 binding to purified anti-LEPR/GP130 bispecific antibodies were determined using a real-time surface plasmon resonance biosensor using a Biacore 4000 instrument. All binding studies were performed in 10 mM HEPES, 150 mM NaCl, 3 mM EDTA, and 0.05% v/v Surfactant Tween-20, pH 7.4 (HBS-ET) running buffer at 25° C. and 37° C. The Biacore sensor surface was first derivatized by amine coupling with a monoclonal mouse anti-human Fc antibody (GE, #BR-1008-39) to capture anti-LEPR/GP130 bispecific antibodies. […] Different concentrations of LEPR or GP130 reagents were first prepared in HBS-ET running buffer (100 nM-3.7 nM; 3-fold serial dilution) and were injected over anti-human Fc captured anti-LEPR/GP130 bispecific antibody surface for 4 minutes at a flow rate of 30 μL/minute, while the dissociation of bispecific antibody bound LEPR or GP130 reagent was monitored for 10 minutes in HBS-ET running buffer. Kinetic association (kₐ) and dissociation (kd) rate constants were determined by fitting the real-time binding sensorgrams to a 1:1 binding model with mass transport limitation using Scrubber 2.0c curve-fitting software. Binding dissociation equilibrium constants (KD) and dissociative half-lives (t ½) were calculated from the kinetic rate constants as: […]

[2] = target: T2, human LEPR extracellular domain expressed with a C-terminal myc-myc-hexahistidine tag (human, UniProt P48357 22-839); assay: as above
T2 construct: Monomeric reagent; the whole entry is the construct with its tag; also called hLEPR-MMH; hLEPR.mmh
T2 sequence (P48357 other isoform, or with tags, fused parts or gaps): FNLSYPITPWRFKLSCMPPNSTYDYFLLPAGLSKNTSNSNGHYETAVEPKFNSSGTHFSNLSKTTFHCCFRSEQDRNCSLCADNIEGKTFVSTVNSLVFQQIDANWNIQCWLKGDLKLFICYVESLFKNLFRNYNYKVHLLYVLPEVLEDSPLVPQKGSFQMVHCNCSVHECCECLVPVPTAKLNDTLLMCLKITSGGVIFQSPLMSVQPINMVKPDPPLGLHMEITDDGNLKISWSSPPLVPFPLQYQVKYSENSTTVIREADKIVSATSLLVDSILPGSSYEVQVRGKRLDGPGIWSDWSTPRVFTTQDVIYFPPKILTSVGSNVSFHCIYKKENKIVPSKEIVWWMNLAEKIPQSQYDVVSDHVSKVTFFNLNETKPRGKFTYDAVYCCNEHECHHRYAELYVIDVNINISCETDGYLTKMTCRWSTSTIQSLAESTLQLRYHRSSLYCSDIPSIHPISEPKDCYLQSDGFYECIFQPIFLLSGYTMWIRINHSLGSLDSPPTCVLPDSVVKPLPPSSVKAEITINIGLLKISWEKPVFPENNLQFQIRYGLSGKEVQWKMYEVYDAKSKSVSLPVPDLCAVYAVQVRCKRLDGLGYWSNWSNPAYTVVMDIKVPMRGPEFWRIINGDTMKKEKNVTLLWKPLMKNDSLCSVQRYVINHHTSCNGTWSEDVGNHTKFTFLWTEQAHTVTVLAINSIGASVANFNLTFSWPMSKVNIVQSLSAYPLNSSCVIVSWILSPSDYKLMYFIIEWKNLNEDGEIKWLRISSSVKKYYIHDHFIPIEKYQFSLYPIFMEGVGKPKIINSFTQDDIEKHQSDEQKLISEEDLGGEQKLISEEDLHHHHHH
Procedure: as §1

[3] = target: T1, Macaca Fascicularis LEPR extracellular …; assay: SPR Biacore 4000, bsAb captured by anti-human Fc, 25 C
Procedure: as §1

[4] = target: T2, human LEPR extracellular domain …; assay: as above
Procedure: as §1

Binder | 100 nM mfLEPR-MMH Bound (RU) [1] [RU] | Kd [1] [nM] | koff [1] [s⁻¹] | kon [1] [M⁻¹ s⁻¹] | t½ [1] [min] | 100 nM hLEPR-MMH Bound (RU) [2] [RU] | Kd [2] [nM] | koff [2] [s⁻¹] | kon [2] [M⁻¹ s⁻¹] | t½ [2] [min] | 100 nM mfLEPR-MMH Bound (RU) [3] [RU] | Kd [3] [nM] | koff [3] [s⁻¹] | kon [3] [M⁻¹ s⁻¹] | t½ [3] [min] | 100 nM hLEPR-MMH Bound (RU) [4] [RU] | Kd [4] [nM] | koff [4] [s⁻¹] | kon [4] [M⁻¹ s⁻¹] | t½ [4] [min]
B1 | 163 | 5.64 | 0.000565 | 100000 | 20 | 65 | 20.5 | 0.000791 | 38500 | 15 | 107 | 2.8 | 0.000119 | 42500 | 97 | 42 | 7.13 | 0.000162 | 22700 | 71
B2 | 155 | 5.49 | 0.000565 | 103000 | 20 | 63 | 20 | 0.000792 | 39700 | 15 | 103 | 2.9 | 0.000122 | 42000 | 95 | 40 | 6.36 | 0.000153 | 24000 | 76
B3 | 159 | 5.64 | 0.000541 | 96000 | 21 | 65 | 19.2 | 0.000729 | 37900 | 16 | 102 | 2.96 | 0.000121 | 40800 | 96 | 40 | 7.95 | 0.00018 | 22600 | 64
B4 | 158 | 5.25 | 0.000519 | 98900 | 22 | 63 | 19.5 | 0.000691 | 35500 | 17 | 102 | 2.79 | 0.000117 | 41800 | 99 | 41 | 7.35 | 0.000176 | 24000 | 66
B5 | 163 | 6.17 | 0.000571 | 92500 | 20 | 69 | 20.5 | 0.000798 | 39000 | 14 | 107 | 2.88 | 0.000119 | 41300 | 97 | 44 | 7.31 | 0.000172 | 23600 | 67
